Laboratory results as given in the supplement of paper PMC9170038.

Tested on: MS2 coat protein
Test: apparent KD of MS2 coat protein; higher = weaker reporter binding
Conditions: Eterna round: R107
Procedure, shortened: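 Apparent KD stands for the median, per design, of fits to normalised cluster binding curves. The curves came from titrating on-chip-transcribed RNA switches on Illumina sequencing clusters with SNAP-549-labelled MS2 coat protein, twofold from 0.7 or 1.5 nM to 3 µM. Buffer was 100 mM Tris-HCl pH 7.5, 80 mM KCl, 4 mM MgCl2, without or with constant ligand.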

[1] = input ligand: theophylline 20 uM
[2] = input ligand: theophylline 2 mM
[3] = input ligand: tryptophan 2.4 mM

Sequence | apparent KD of MS2 coat protein (input ligand: arginine 13.2 mM) [nM] | apparent KD of MS2 coat protein [1] [nM] | apparent KD of MS2 coat protein [2] [nM] | apparent KD of MS2 coat protein (input ligand: none) [nM] | apparent KD of MS2 coat protein [3] [nM]
CCAUGGUUGACGGCCGCCACUCAUUAGUCUUUGAGGUUGGCACAUGAGGAUCACCCAUGUCUGCAGAGGACCGGGUCUCGCCACA [theeternabot_sameState_MS2_Trp_B_15] | 39.8 | 67.3 | 54.4 | – | –
CCCAGUCAUAACAAAGGAAAUAUACUCGAAGGAGCGUCAUAGUAGGCAGGUAGGUCGCGAGACAUGAGGAUCACCCAUGUAGAGA [swwvmullin] | 21.5 | 72 | 75.1 | 47.5 | 57.8
CCCAGUUAUAACAAAGGAAUUAUACUCGAAGGAGCGUCAUAGUAGGCAGGUAGGUCGCGAGACAUGAGGAUCACCCAUGUAGAGA [k,lmullin] | 32.1 | 56.3 | 49.4 | 42.3 | 50
CCGUCACAUGAGGAUCACCCAUGUGCGGAAGGAGCGGACGAUAGUCCAGGUAGGUCGCCGUAUAGCCAAUGACCAGCAGUGUCGG [XARG-A 22] | 12.4 | 16.6 | 14.8 | 13.9 | 15
CCUAUCCAGUCGGCCGCCACUGAAAACAGUGGGUGAACAUGAGGAUCACCCAUGUAAUAAUAAAACAGGACCGGGACUGUAUAGG [Ex Tryptophan B 22] | 290 | 458 | 882 | 452 | 369
CCUAUCCAGUCGGCCGCCACUGAAAACAGUGGGUGAACAUGAGGAUCACCCAUGUCGGAAUACCGCAGGACCGGGACUGUAUAGG [Ex Tryptophan B 23] | 162 | 393 | 1220 | 143 | 574
CCUAUGCAGUCGGCCGCCACUGAUAAAGUUAUCUUUACCUCAGAAACAUGAGGAUCACCCAUGUACAGGACCGGGACUGUAUAGG [Ex Tryptophan B 18] | 14.8 | 14.6 | 15.9 | – | –
CCUCAAUCGUCGGCCGCCACUGAAUCAUGCGGAUACAUGAGGAUCACCCAUGUGGGUGUGGUACGCAGGACCGGGACAAGACCCG [#14 Same State - Tryptophan B] | 154 | 337 | 860 | 203 | 152
CCUCAGCAAUUGGAUACCAGUACAUCGUAAGACAUGAGGAUCACCCAUGUGGGCUUGACAUACCCUUGGCAGCCAUCCUUGAUCC [theeternabot_sameState_MS2_Theo_B_3] | 101 | – | – | – | 250
CCUGACAUGAGGAUCACCCAUGUGUGAGCACGAGGACCGGUACGGCCGCCACUCGCGUUGCCGGCCGGACUAUCUGGCGAAGUCA [theeternabot_sameState_MS2_Trp_A_10] | 28.3 | 39.6 | 41.4 | – | –
CCUUUGUAGCGAAGGAGCGCGUGACUUAGCUCAUGUAAACAUGAGGAUCACCCAUGUGACACGCAGGUAGGUCGCGCUAUGAAGG [Arg B Ex t3] | 22.2 | 28.7 | 23.5 | 22.3 | 21.9
CGAUAUAAGACGGCCGCCACUAUUAAGUAUCAAAAUAAACAUGAGGAUCACCCAUGUACAUGGGAUAGGACCGGGUCCAAUAACG [A2] | 40.7 | 123 | 208 | 128 | 70.2
CGCACAUGAGGAUCACCCAUGUGAGGGCGGCGAGGACCGGUACGGCCGCCACUCGCAAAACAUGAGGAUCACCCAUGUGCCGCCG [SSTA DOUBLE!!! :-D #2] | 30.1 | 92.3 | 103 | 32.9 | 29.2
CGGCCCUCAGAUGAGGAUCACCCAUCUGAUACCAGCCUGGAAACAGGCCCUUGGCAGCAGAAGGUCAUCAAAGAUGACCAAGCCG [TheoAX 30 #OpenEnded #AlternativeMS2] | 10 | 19.4 | 89.1 | 11.8 | 12
CGUUAAGAAUCGGCCGCCACUCCAUACGUGUGAAUCGCGGAUCGACAUGAGGAUCACCCAUGUCGGAGGACCGGGAUCCUCUUUC [theeternabot_sameState_MS2_Trp_B_12] | 28.2 | 49.2 | 48 | – | –
CUAAAUAUAUCGGCCGCCACUUACUCAUGAGGUAACAACAUGAGGAUCACCCAUGUUUGAGGAUCAAGGACCGGGAUAUAUUUAG [AstrosSSTryB#16] | 26.1 | 37.2 | 28.9 | – | –
CUACAUGGGCUCGAUACCAGUCAGCUCUCGCGUCUCUCAGACAUGAGGAUCACCCAUGUUGACCCUUGGCAGCGACGAUGUAGGC [theeternabot_exclusion_MS2_Theo_B_46] | 51.1 | 123 | – | – | 83.9
CUACAUUUGUAGAAACCGGUCAACAUUAUUCGAGGACCGGUACGGCCGCCACUCGUAUCAUUUGAUACAUGAGGAUCACCCAUGU [Tryptophan A 8] | 21.1 | 26.1 | 26.6 | – | –
CUAGGAAACUAGUAAGGGUGGUAUAGAGAUACCAGUACAGAAAUGUACCCUUGGCAGCUCACUGCAACAUGAGGAUCACCCAUGU [Ex Theophylline A 11] | 29.9 | 41.6 | – | – | 26.1

Sequence | apparent KD of MS2 coat protein (input ligand: arginine 13.2 mM) [nM] | apparent KD of MS2 coat protein [1] [nM] | apparent KD of MS2 coat protein [2] [nM] | apparent KD of MS2 coat protein (input ligand: none) [nM] | apparent KD of MS2 coat protein [3] [nM]
CUAUGUAUAUAUGCGAAAGCUACGUGUUGACGAGGACCGGUACGGCCGCCACUCGACAUGAGGAUCACCCAUGUAAUAUAUAUAG [BMP_BFE] | 102 | 173 | 300 | – | –
CUCCCGUGGUCGGCCGCCACUGGAGGCUUUGCGCGACAUGAGGAUCACCCAUGUGUGCCCGGCGUCAGGACCGGGAUCGCGUGAG [#1 Same State - Tryptophan B Attempt #13 (HarryS)] | 11.7 | 16 | 17.7 | 14.6 | 11.5
CUCGGGUUAUCAGAUACCAGACUAAAAUUUACAUGAGGAUCACCCAUGUAAUGGGUGAUAGUCCCUUGGCAGCUGUUAUGUUUAA [JR_ExcTheophyB_Sub001] | 65 | 85.4 | – | – | 70.8
CUGCCAUGCAGAGAUACCAGUGAGCUCAGAACAUGAGGAUCACCCAUGUACGCCGCCGAUCACCCUUGGCAGCUCUGCAUGGCAG [%*#)(] | 12.2 | 14.1 | 11.4 | 12.4 | 11.6
CUGCCAUGCAGAGAUACCAGUGCGCUCAGCACAUGAGGAUCACCCAUGUUGGCUGCCGAUCACCCUUGGCAGCUCUGCAUGGCAG [#04 Same State - Theophylline B] | 10.9 | 12.5 | – | – | 8.66
CUGUUUACAUGAGCCCGUCAUAUAUACGAUACCAGUUAAAGAUGAAACCCUUGGCAGCGUAGGACAUGAGGAUCACCCAUGUGCC [theeternabot_exclusion_MS2_Theo_A_17] | 15.6 | 21.1 | – | – | 18.6
GAAACGUAGGUGGAGCGGUGAAAUGGCGAUACCAGCGUGGAAACAUGCCCUUGGCAGCGUUAGAACAUGAGGAUCACCCAUGUUU [#22 Exclusion-TheophyllineA] | 12.9 | 15.4 | – | – | 14.9
GAACAGUCGGACAUGAGGAUCACCCAUGUGCGAGGACCGGUACGGCCGCCACUCGACAAGGGCGGUCCCGAAGCGAACAUACGCG [Cecearla] | 14.9 | 43.4 | 34.4 | – | –
GAACAUAAGGAUACUAUAAUAAGUACAGAAGGAGCGAGCGGAAGCUCAGGUAGGUCGCUGGGUAACAUGAGGAUCACCCAUGUUG [SSArg A #14 Road to perfection1] | 23.1 | 37 | 37 | 21.4 | 15.6
GAAGGAGUUAUGGGUACUCCUUCACUGGAAGGAGCGAGCGAAAGCUCAGGUAGGUCGCCAGAAACAUGAGGAUCACCCAUGUAAU [(A)''-(M)'-(A)'-(Arg1)-(Arg2)-(M1)-(M2)_Design6] | 30.3 | 59.5 | 65.3 | 45.7 | 41.3
GACAGACGAGGAAGGAGCGACAUGAGGAUCACCCAUGUUGCGGGUUUAAGGUGAACUAAGUGUCAGGUAGGUCGCCUCGCUUUUA [Diatbeat] | 35.7 | 56.5 | 49.3 | 41.2 | 36.3
GACAUGAGGAUCACCCAUGUUUGCUAUGAAGGAGCGUCGGAAAUGACAGGUAGGUCGCAUAGUAGACCUUGUAUUUCGUGUGUUU [#01 Exclusion - Arginine A] | 10.8 | 14.5 | 11.2 | 10.8 | 12
GACAUUAACUGAAGGAGCGAGGUAGAACGGGAUGAGCAUACAUGAGGAUCACCCAUGUGGCCUCAGGUAGGUCGCAGAUGAGAUU [Exclusion Arginine B GF25] | 83.4 | 201 | 203 | 175 | 179
GACCGGUUAUAGCGCGAUUGUCUUGUGGAAGGAGCGCAGAGGGCUGCAGGUAGGUCGCCACAUGAGGAUCACCCAUGUCAGGAAA [Biraesge] | 28.1 | 32.2 | 35.5 | 19.2 | 19.7
GAGACAUGAGGAUCACCCAUGUUAGAUGAUACCAGUUAGAGAAGGAGCCCUUGGCAGCGUAAAUCUAGAGCCUAUGACGACAUGU [ss-theoA-1] | 16.2 | 15.8 | – | – | 13.2
GAGCUGAUGUAGAGAUUAUAUAAAAGAGAUACCAGUACAGAAAUGUACCCUUGGCAGCUCAACUUUACAUGAGGAUCACCCAUGU [Ex Theophylline A 19] | 15.4 | 15.8 | – | – | 13.9
GAGUCCACGGCGGCCGCCACUCGCGGCGCCACAUGGCGCCGGGACAUGAGGAUCACCCAUGUCCCGAGGACCGGGCCGAUCCUUA [Same State Typrtophan B GF3] | 11.2 | 26.6 | 31.5 | 21 | 12.9
GAUACUAUGAAAGUAGUAUCUACGUGUUGACGAGGACCGGUACGGCCGCCACUCGACAUGAGGAUCACCCAUGUAUAGAAUAUGU [TrypA_2] | 25.1 | 39.2 | 31.9 | – | –
GAUAUGUUUCGAAGGAGCGGCCCUUGAUCCUCAUGAGACAUGAGGAUCACCCAUGUCUCGGGCCAGGUAGGUCGCGAAAUAUAUC [Astros-omei-mod4] | 30.3 | 32.1 | 21.4 | 19.2 | 19.5
